Source: the supplement of paper PMC11316812
± gives the standard deviation of the averaged measurements.

Assays:
[1] = system: MCF7; test: percentage of EdU-negative (G0-arrested) nuclei per well, 72 h; higher = more G0 arrest; conditions: reference: sequence is the full UniProt precursor, the tested protein was the secreted form or ectodomain
[2] = system: hTERT-HMEC; test: as above; conditions: reference: sequence is the full UniProt precursor, the tested protein was the secreted form or ectodomain
[3] = protein concentration 0.02525 µM
[4] = protein concentration 0.2525 µM
[5] = protein concentration 0.0225 µM
[6] = protein concentration 0.027265 µM
[7] = protein concentration 0.27265 µM
[8] = protein concentration 0.00775 µM
[9] = protein concentration 0.0775 µM
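Note: secreted proteins added to cultured cells, EdU pulse at the end, nuclei found by Hoechst imaging, EdU status from nuclear versus surrounding ring intensity ratio, PBS as neutral control.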

In the case of “MPAGRAARTCALLALCLLGAGAQDFGPTRFICTSVPVDADMCAASVAAGGAEELRSSVLQLRETVLQQKETILSQKETIRELTAKLGRCESQSTLDPGAGEARAGGGRKQPGSGKNTMGDLSRTPAAETLSQLGQTLQSLKTRLENLEQYSRLNSSSQTNSLKDLLQSKIDELERQVLSRVNTLEEGKGGPRNDTEERVKIETALTSLHQRISELEKGQKDNRPGDKFQLTFPLRTNYMYAKVKKSLPEMYAFTVCMWLKSSATPGVGTPFSYAVPGQANELVLIEWGNNPMEILINDKVAKLPFVINDGKWHHICVTWTTRDGVWEAYQDGTQGGSGENLAPYHPIKPQGVLVLGQEQDTLGGGFDATQAFVGELAHFNIWDRKLTPGEVYNLATCSTKALSGNVIAWAESHIEIYGGATKWTFEACRQIN”, the “percentage of EdU-negative” value [1, 3] is reported as 26.9 ± 2.1%, the “percentage of EdU-negative” value [1, 4] is reported as 24.2 ± 4.3% and the “percentage of EdU-negative” value [2, 3] is reported as 5.12 ± 0.18%. For the same sequence, the “percentage of EdU-negative” value [2, 4] was 4.43 ± 0.47%.

“MPAGRRGPAAQSARRPPPLLPLLLLLCVLGAPRAGSGAHTAVISPQDPTLLIGSSLLATCSVHGDPPGATAEGLYWTLNGRRLPPELSRVLNASTLALALANLNGSRQRSGDNLVCHARDGSILAGSCLYVGLPPEKPVNISCWSKNMKDLTCRWTPGAHGETFLHTNYSLKYKLRWYGQDNTCEEYHTVGPHSCHIPKDLALFTPYEIWVEATNRLGSARSDVLTLDILDVVTTDPPPDVHVSRVGGLEDQLSVRWVSPPALKDFLFQAKYQIRYRVEDSVDWKVVDDVSNQTSCRLAGLKPGTVYFVQVRCNPFGIYGSKKAGIWSEWSHPTAASTPRSERPGPGGGACEPRGGEPSSGPVRRELKQFLGWLKKHAYCSNLSFRLYDQWRAWMQKSHKTRNQDEGILPSGRRGTARGPAR” was tested, and the “percentage of EdU-negative” value ([1]; protein concentration 0.006 µM) was 25.3 ± 0.23%, the “percentage of EdU-negative” value ([1]; protein concentration 0.06 µM) was 28.9 ± 1.2% and the “percentage of EdU-negative” value ([2]; protein concentration 0.006 µM) was 4.58 ± 0.39%. For the same sequence, the “percentage of EdU-negative” value ([2]; protein concentration 0.06 µM) was 5.19 ± 0.85%.

With “MPAIAVLAAAAAAWCFLQVESRHLDALAGGAGPNHGNFLDNDQWLSTVSQYDRDKYWNRFRDDDYFRNWNPNKPFDQALDPSKDPCLKVKCSPHKVCVTQDYQTALCVSRKHLLPRQKKGNVAQKHWVGPSNLVKCKPCPVAQSAMVCGSDGHSYTSKCKLEFHACSTGKSLATLCDGPCPCLPEPEPPKHKAERSACTDKELRNLASRLKDWFGALHEDANRVIKPTSSNTAQGRFDTSILPICKDSLGWMFNKLDMNYDLLLDPSEINAIYLDKYEPCIKPLFNSCDSFKDGKLSNNEWCYCFQKPGGLPCQNEMNRIQKLSKGKSLLGAFIPRCNEEGYYKATQCHGSTGQCWCVDKYGNELAGSRKQGAVSCEEEQETSGDFGSGGSVVLLDDLEYERELGPKDKEGKLRVHTRAVTEDDEDEDDDKEDEVGYIW” the “percentage of EdU-negative” value ([1]; protein concentration 0.015 µM) was 24.9 ± 1%, the “percentage of EdU-negative” value ([1]; protein concentration 0.15 µM) was 26.5 ± 1.8% and the “percentage of EdU-negative” value ([2]; protein concentration 0.015 µM) was 5.37 ± 0.53%. The “percentage of EdU-negative” value ([2]; protein concentration 0.15 µM) was 10.4 ± 1.6%.

For “MPALGWAVAAILMLQTAMAEPSPGTLPRKAGVFSDLSNQELKAVHSFLWSKKELRLQPSSTTTMAKNTVFLIEMLLPKKYHVLRFLDKGERHPVREARAVIFFGDQEHPNVTEFAVGPLPGPCYMRALSPRPGYQSSWASRPISTAEYALLYHTLQEATKPLHQFFLNTTGFSFQDCHDRCLAFTDVAPRGVASGQRRSWLIIQRYVEGYFLHPTGLELLVDHGSTDAGHWAVEQVWYNGKFYGSPEELARKYADGEVDVVVLEDPLPGGKGHDSTEEPPLFSSHKPRGDFPSPIHVSGPRLVQPHGPRFRLEGNAVLYGGWSFAFRLRSSSGLQVLNVHFGGERIAYEVSVQEAVALYGGHTPAGMQTKYLDVGWGLGSVTHELAPGIDCPETATFLDTFHYYDADDPVHYPRALCLFEMPTGVPLRRHFNSNFKGGFNFYAGLKGQVLVLRTTSTVYNYDYIWDFIFYPNGVMEAKMHATGYVHATFYTPEGLRHGTRLHTHLIGNIHTHLVHYRVDLDVAGTKNSFQTLQMKLENITNPWSPRHRVVQPTLEQTQYSWERQAAFRFKRKLPKYLLFTSPQENPWGHKRTYRLQIHSMADQVLPPGWQEEQAITWARYPLAVTKYRESELCSSSIYHQNDPWHPPVVFEQFLHNNENIENEDLVAWVTVGFLHIPHSEDIPNTATPGNSVGFLLRPFNFFPEDPSLASRDTVIVWPRDNGPNYVQRWIPEDRDCSMPPPFSYNGTYRPV”, the “percentage of EdU-negative” value ([1]; protein concentration 0.019 µM) was 25 ± 4.8%, the “percentage of EdU-negative” value ([1]; protein concentration 0.19 µM) was 29.1 ± 1.2% and the “percentage of EdU-negative” value ([2]; protein concentration 0.019 µM) was 5.16 ± 1.3%. For the same sequence, the “percentage of EdU-negative” value ([2]; protein concentration 0.19 µM) was 11 ± 0.68%.

In the case of “MPAVFMLASSSALQCGRGVPRFPRTEVGAGHSVNEETKAEKVGNQTSVIPATSRQAALGTSWTQRRTQPLQERSHWHPRGNNASGMGGHRMFPGPLRGPAAQVLENECGSLGRAAEGRS [Q8N2X6]”, the “percentage of EdU-negative” value [1, 5] is reported as 24.5 ± 1.8%, the “percentage of EdU-negative” value ([1]; protein concentration 0.225 µM) is reported as 24.7 ± 0.9% and the “percentage of EdU-negative” value [2, 5] is reported as 4.66 ± 0.059%. The “percentage of EdU-negative” value ([2]; protein concentration 0.225 µM) was 4.77 ± 0.18%.

For “MPDTMLPACFLGLLAFSSACYFQNCPRGGKRAMSDLELRQCLPCGPGGKGRCFGPSICCADELGCFVGTAEALRCQEENYLPSPCQSGQKACGSGGRCAAFGVCCNDESCVTEPECREGFHRRARASDRSNATQLDGPAGALLLRLVQLAGAPEPFEPAQPDAY”, the “percentage of EdU-negative” value [1, 6] was 24 ± 0.36%, the “percentage of EdU-negative” value [1, 7] was 24.4 ± 0.13% and the “percentage of EdU-negative” value [2, 6] was 5.39 ± 0.55%. The “percentage of EdU-negative” value [2, 7] was 5.52 ± 1.1%.

In the case of “MPEEGSGCSVRRRPYGCVLRAALVPLVAGLVICLVVCIQRFAQAQQQLPLESLGWDVAELQLNHTGPQQDPRLYWQGGPALGRSFLHGPELDKGQLRIHRDGIYMVHIQVTLAICSSTTASRHHPTTLAVGICSPASRSISLLRLSFHQGCTIASQRLTPLARGDTLCTNLTGTLLPSRNTDETFFGVQWVRP”, the “percentage of EdU-negative” value [1, 5] is reported as 26.5 ± 2.2%, the “percentage of EdU-negative” value ([1]; protein concentration 0.225 µM) is reported as 26.6 ± 0.44% and the “percentage of EdU-negative” value [2, 5] is reported as 5.04 ± 0.08%. For the same sequence, the “percentage of EdU-negative” value ([2]; protein concentration 0.225 µM) was 5.11 ± 0.64%.

With “MPERLAEMLLDLWTPLIILWITLPPCIYMAPMNQSQVLMSGSPLELNSLGEEQRILNRSKRGWVWNQMFVLEEFSGPEPILVGRLHTDLDPGSKKIKYILSGDGAGTIFQINDVTGDIHAIKRLDREEKAEYTLTAQAVDWETSKPLEPPSEFIIKVQDINDNAPEFLNGPYHATVPEMSILGTSVTNVTATDADDPVYGNSAKLVYSILEGQPYFSIEPETAIIKTALPNMDREAKEEYLVVIQAKDMGGHSGGLSGTTTLTVTLTDVNDNPPKFAQSLYHFSVPEDVVLGTAIGRVKANDQDIGENAQSSYDIIDGDGTALFEITSDAQAQDGIIRLRKPLDFETKKSYTLKVEAANVHIDPRFSGRGPFKDTATVKIVVEDADEPPVFSSPTYLLEVHENAALNSVIGQVTARDPDITSSPIRFSIDRHTDLERQFNINADDGKITLATPLDRELSVWHNITIIATEIRNHSQISRVPVAIKVLDVNDNAPEFASEYEAFLCENGKPGQVIQTVSAMDKDDPKNGHYFLYSLLPEMVNNPNFTIKKNEDNSLSILAKHNGFNRQKQEVYLLPIIISDSGNPPLSSTSTLTIRVCGCSNDGVVQSCNVEAYVLPIGLSMGALIAILACIILLLVIVVLFVTLRRHKNEPLIIKDDEDVRENIIRYDDEGGGEEDTEAFDIATLQNPDGINGFLPRKDIKPDLQFMPRQGLAPVPNGVDVDEFINVRLHEADNDPTAPPYDSIQIYGYEGRGSVAGSLSSLESTTSDSDQNFDYLSDWGPRFKRLGELYSVGESDKET” the “percentage of EdU-negative” value [1, 8] was 27.78 ± 0.12%, the “percentage of EdU-negative” value [1, 9] was 34.9 ± 1.6% and the “percentage of EdU-negative” value [2, 8] was 5.37 ± 0.11%. The “percentage of EdU-negative” value [2, 9] was 5.69 ± 0.22%.

For “MPGAAEALPTVTVTLVAGAVPPASGALTAHCIGGFWREVGVASDQSLVLTAPKRVEGLFLTLSGSNLTVKVAYNSSGSCEIEKIVGSEIDSTGKFAFPGHREIHVLDTDYEGYAILRVSLMWRGRNFRVLKYFTRSLEDKDRLGFWKFRELTADTGLYLAARPGRCAELLKEELI [Q6JVE9]”, the “percentage of EdU-negative” value [1, 5] was 26.5 ± 1.8%, the “percentage of EdU-negative” value ([1]; protein concentration 0.225 µM) was 31 ± 2.1% and the “percentage of EdU-negative” value [2, 5] was 5.03 ± 0.21%. The “percentage of EdU-negative” value ([2]; protein concentration 0.225 µM) was 9.51 ± 1.1%.

For “MPGGCSRGPAAGDGRLRLARLALVLLGWVSSSSPTSSASSFSSSAPFLASAVSAQPPLPDQCPALCECSEAARTVKCVNRNLTEVPTDLPAYVRNLFLTGNQLAVLPAGAFARRPPLAELAALNLSGSRLDEVRAGAFEHLPSLRQLDLSHNPLADLSPFAFSGSNASVSAPSPLVELILNHIVPPEDERQNRSFEGMVVAALLAGRALQGLRRLELASNHFLYLPRDVLAQLPSLRHLDLSNNSLVSLTYVSFRNLTHLESLHLEDNALKVLHNGTLAELQGLPHIRVFLDNNPWVCDCHMADMVTWLKETEVVQGKDRLTCAYPEKMRNRVLLELNSADLDCDPILPPSLQTSYVFLGIVLALIGAIFLLVLYLNRKGIKKWMHNIRDACRDHMEGYHYRYEINADPRLTNLSSNSDV”, the “percentage of EdU-negative” value [1, 5] was 25.8 ± 1.4%, the “percentage of EdU-negative” value ([1]; protein concentration 0.225 µM) was 27.9 ± 0.44% and the “percentage of EdU-negative” value [2, 5] was 4.65 ± 0.22%. For the same sequence, the “percentage of EdU-negative” value ([2]; protein concentration 0.225 µM) was 6.38 ± 0.11%.

With “MPGGPGVLQALPATIFLLFLLSAVYLGPGCQALWMHKVPASLMVSLGEDAHFQCPHNSSNNANVTWWRVLHGNYTWPPEFLGPGEDPNGTLIIQNVNKSHGGIYVCRVQEGNESYQQSCGTYLRVRQPPPRPFLDMGEGTKNRIITAEGIILLFCAVVPGTLLLFRKRWQNEKLGLDAGDEYEDENLYEGLNLDDCSMYEDISRGLQGTYQDVGSLNIGDVQLEKP” the “percentage of EdU-negative” value [1, 5] was 25.3 ± 0.85%, the “percentage of EdU-negative” value ([1]; protein concentration 0.225 µM) was 27 ± 1.2% and the “percentage of EdU-negative” value [2, 5] was 5.39 ± 0.06%. The “percentage of EdU-negative” value ([2]; protein concentration 0.225 µM) was 5.986 ± 0.025%.
